Measurements published in patent US20140357845A1.

Biological target: miniHA (A/Brisbane/59/2007) (influenza A virus H1N1), A8C8J4
Test: FACS
Settings: remark: other sources report otherwise

B1: CR6261 (antibody, V domains shown)
VH: EVQLVESGAEVKKPGSSVKVSCKASGGPFRSYAISWVRQAPGQGPEWMGGIIPIFGTTKYAPKFQGRVTITADDFAGTVYMELSSLRSEDTAMYYCAKHMGYQVRETMDVWGKGTTVTVSS
VL: QSVLTQPPSVSAAPGQKVTISCSGSSSNIGNDYVSWYQQLPGTAPKLLIYDNNKRPSGIPDRFSGSKSGTSATLGITGLQTGDEANYYCATWDRRPTAYVVFGGGTKLTVLG
In the case of B1, the % positive cells is reported as 1 to 3%.
